Data: article PMC2714988, “Dimerization of Hepatitis E Virus Capsid Protein E2s Domain Is Essential for Virus–Host Interaction” (PLoS Pathogens, 2009)

How the values were obtained:
[1] = target: E2-R542A (Hepatitis E virus) (UniProt Q81871); experiment: not stated; 'in solution'; the paragraph names non-reducing SDS-PAGE, analytical ultracentrifugation and gel filtration for the mutants without telling which was used here
[2] = target: E2-D496A (Hepatitis E virus) (UniProt Q81871); experiment: non-reducing SDS-PAGE; loading buffer with only 0.1% SDS, no BME, sample not boiled; compared with MW markers
[3] = target: E2-Y485A (Hepatitis E virus) (UniProt Q81871); experiment: as above
[4] = target: E2-I529A (Hepatitis E virus) (UniProt Q81871); experiment: as above
[5] = target: E2s-Y557A (Hepatitis E virus) (UniProt Q81871); experiment: AUC; sedimentation equilibrium; 20°C; phosphate-buffered saline pH 7.4; E2s at 0.69, 0.36 and 0.14 OD; 18,000, 21,000 and 24,000 rpm; single ideal species model and self-association monomer-dimer model; dimer to monomers
[6] = target: HEV capsid protein domain E2s (ORF2 aa455-602) (Hepatitis E virus) (UniProt Q81871); experiment: AUC; sedimentation velocity; 20°C; E2s 1 mg/ml in phosphate-buffered saline pH 7.4; 60,000 rpm; c(s) method
[7] = target: HEV capsid protein domain E2s (ORF2 aa455-602) (Hepatitis E virus) (UniProt Q81871); experiment: SEC; Superdex 75 10/300GL in phosphate-buffered saline pH 7.4, 0.5 ml/min, against molecular weight standards
[8] = target: HEV capsid protein domain E2s (ORF2 aa455-602) (Hepatitis E virus) (UniProt Q81871); experiment: AUC; sedimentation equilibrium; 20°C; phosphate-buffered saline pH 7.4; E2s at 0.69, 0.36 and 0.14 OD; 18,000, 21,000 and 24,000 rpm; single ideal species model and self-association monomer-dimer model; dimer to monomers
[9] = target: E2-K534A (Hepatitis E virus) (UniProt Q81871); experiment: non-reducing SDS-PAGE; loading buffer with only 0.1% SDS, no BME, sample not boiled; compared with MW markers
[10] = target: E2-E479A (Hepatitis E virus) (UniProt Q81871); experiment: as above
[11] = target: HEV capsid protein E2 (ORF2 aa394-606), wild type (Hepatitis E virus, UniProt Q81871 394-606); experiment: as above; settings: both partners purified

Work on “E2-R542A (from UniProt Q81871 394-606) (domain or fragment)” yielded a stoichiometry N [1] of 2.

For “E2-D496A (from UniProt Q81871 394-606) (domain or fragment)”, the stoichiometry N [2] was 2.

“E2-Y485A (from UniProt Q81871 394-606) (domain or fragment)” showed a stoichiometry N [3] of 2.

“E2-I529A (from UniProt Q81871 394-606) (domain or fragment)” gave a stoichiometry N [4] of 2.

Molecule “E2s-Y557A (from UniProt Q81871 455-602) (domain or fragment)” has a stoichiometry N [5] of 2.

For “HEV capsid protein domain E2s (ORF2 aa455-602) (from UniProt Q81871 455-602) (domain or fragment)”, the stoichiometry N [6] was 2, the stoichiometry N [7] was 2 and the Kd [8] was 397 nM. For the same molecule, the stoichiometry N [8] was 2.

In the case of “E2-K534A (from UniProt Q81871 394-606) (domain or fragment)”, the stoichiometry N [9] is reported as 2.

Molecule “E2-E479A (from UniProt Q81871 394-606) (domain or fragment)” has a stoichiometry N [10] of 2.

B1: HEV capsid protein E2 (ORF2 aa394-606), wild type (domain or fragment)
chain: MQLFYSRPVVSANGEPTVKLYTSVENAQQDKGIAIPHDIDLGESRVVIQDYDNQHEQDRPTPSPAPSRPFSVLRANDVLWLSLTAAEYDQSTYGSSTGPVYVSDSVTLVNVATGAQAVARSLDWTKVTLDGRPLSTIQQHSKTFFVLPLRGKLSFWEAGTTKAGYPYNYNTTASDQLLVENAAGHRVAISTYTTSLGAGPVSISAVAVLAPHSA
modifications: Wild-type E2, aa394-606, with start Met. The E2s gene was amplified from this E2 gene, so aa455-602 are taken from 3GGQ; the flanks come from genotype 1 Q81871 because the strain is not printed. …
With B1 the “stoichiometry N” value [11] was 2.
